Test results reported in patent US10689452 (UNIVERSIT T STUTTGART, dated 2020).

Biological target: T1, human TNFR1-Fc fusion protein (human, UniProt P19438 29-211)
T1 construct: range 29-211; Made in stably transfected HEK293 cells; coated on ELISA plates or immobilised on QCM chips; also called huTNFR1-Fc; human TNFR-Fc; not shown: Fc part from vector pSecTagL1-Fc
T1 sequence (looked up): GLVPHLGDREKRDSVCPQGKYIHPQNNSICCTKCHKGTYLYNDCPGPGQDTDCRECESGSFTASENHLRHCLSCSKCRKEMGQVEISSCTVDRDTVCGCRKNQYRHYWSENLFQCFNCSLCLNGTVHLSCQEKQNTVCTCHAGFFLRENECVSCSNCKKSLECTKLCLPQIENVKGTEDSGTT
Assay: standard ELISA, human TNFR1-Fc
Procedure: FIG. 1. […] Applied were triplicates of five concentrations between 3.9 nM and 62.5 nM.
Microtiter plates were coated with 100 µl of the indicated protein (1 µg/ml in PBS, see Table 3.3) and incubated at 4° C. over night. The residual binding sites were blocked with 2% MPBS (skim milk in PBS, 200 µl per well) at room temperature for 2 hours and subsequently washed twice with PBS. 100 µl of the samples diluted in 2% MPBS were incubated at room temperature for 1 hour prior to the last incubation step with 100 µl of the HRP conjugated detection antibodies in 2% MPBS. In the case of competition experiments, both analyzed protein samples were prepared individually (either titrated or diluted to a single concentration) and mixed before they were applied to the plate. Bound protein was detected with 100 µl TMB substrate solution, the HRP-reaction was stopped by the addition of 50 µl 1 M H2SO4 and the absorption at the wavelength of 450 nm was measured using the Infinite microtiter plate reader (TECAN, Maennedorf, Switzerland). Between each incubation step and in advance of the detection, the plates were washed three times with PBST and twice with PBS.

EC50: 0.25 nM
Factor (EC50, ATROSAB against H398): 1.7 fold
B1: ATROSAB (antibody, IgG1, V domains shown)
VH: QVQLVQSGAEVKKPGSSVKVSCKASGYTFTDFYINWVRQAPGQGLEWIGEIYPYSGHAYYNEKFKARVTITADKSTSTAYMELSSLRSEDTAVYYCARWDFLDYWGQGTTVTVSS
VL: DIVMTQSPLSLPVTPGEPASISCRSSQSLLHSNGNTYLHWYLQKPGQSPQLLIYTVSNRFSGVPDRFSGSGSGTDFTLKISRVEAEDVGVYYCSQSTHVPYTFGGGTKVEIKR
notes: Humanized full-length IgG1 with a modified Fc region deficient in mediating effector functions (made according to WO2012035141); also called full length IgG ATROSAB
